Here are results for nine molecules from paper PMC12719470 (Frontiers in Immunology, 2025).

Common to all, as to conditions: both partners purified
Assay [1] has as its target T1, TNFR2-His protein (Homo sapiens, UniProt P20333).
T1 construct: Tumor necrosis factor receptor 2 (TNFR2), human; The BLI methods say only 'TNFR2-His protein'; It may be the E. coli ectodomain (residues 33-205, purified on a nickel column) or a bought protein (Sino Biological 10417-H03H); neither the source nor the species is named for this experiment; also called histidine-tagged TNFR2
Description: BLI; 30 nM Nanobody-161 IgG1 or mutant immobilised on Protein A biosensors (Gator); 4800 nM-300 nM TNFR2-His in Q Buffer (PBS, 0.02% Tween 20, 0.2% BSA); 25 °C; association 120 s, dissociation 180 s; global 1:1 Langmuir fit. (In general: In BLI a coated tip is dipped into the sample, and binding shifts an interference pattern.)

Assay [2] concerns the target T2, Nanobody-161 IgG1 R108A.
T2 construct: as the chain of m1 with the stated change
The experiment in a line: BLI; Gator system, 25 °C; 30 nM Nanobody-161 IgG1 or mutant immobilised on Protein A biosensors for 120 s; 4800 nM-300 nM TNFR2-His in Q Buffer (PBS, 0.02% Tween 20, 0.2% BSA); association 120 s, dissociation 180 s; global 1:1 Langmuir fit.

The target in assay [3] is T3, Nanobody-161 IgG1 F107G.
T3 construct: as the chain of m1 with the stated change
Described as above.

The target of assay [4] is T4, Nanobody-161 IgG1 R53A.
T4 construct: as the chain of m1 with the stated change
The assay is described as above.

Assay [5] has as its target T5, Nanobody-161 IgG1 Q102A.
T5 construct: as the chain of m1 with the stated change
The description is as above.

For assay [6], the target named is T6, Nanobody-161 IgG1 R29A.
T6 construct: as the chain of m1 with the stated change
The assay is described as above.

Assay [7] concerns the target T7, Nanobody-161 IgG1.
T7 construct: CDR1 26-35, CDR2 50-59, CDR3 99-110); 78 kDa, called bivalent in the discussion; The methods nonetheless speak of heavy-chain and light-chain plasmids; source: ExpiCHO, transfected, purified from conditioned medium (MabSelect SuRe LX)
The description is as above.

T1 sequence (P20333 23-461): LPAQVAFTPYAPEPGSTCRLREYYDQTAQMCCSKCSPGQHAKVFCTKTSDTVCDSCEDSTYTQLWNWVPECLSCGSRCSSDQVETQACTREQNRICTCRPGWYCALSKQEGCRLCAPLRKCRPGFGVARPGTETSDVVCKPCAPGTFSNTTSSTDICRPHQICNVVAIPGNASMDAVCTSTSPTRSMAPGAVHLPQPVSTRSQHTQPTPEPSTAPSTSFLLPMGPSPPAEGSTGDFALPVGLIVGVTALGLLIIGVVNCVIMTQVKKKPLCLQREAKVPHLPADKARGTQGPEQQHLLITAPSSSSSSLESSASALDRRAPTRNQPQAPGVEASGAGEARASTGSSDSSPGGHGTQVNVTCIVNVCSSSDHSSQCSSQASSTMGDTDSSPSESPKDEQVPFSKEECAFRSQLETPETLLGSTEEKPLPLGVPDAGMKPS

B1: Nanobody-161 IgG1 (VHH)
VHH: EVQLVESGGGLVQPGGSLRLSCAASGSIRFINDMGWYRQAPGKGLELVAAIGRGGGSTNYADSVKGRFTISRDNAKNTLYLQMNSLRAEDTAVYYCHAEISQLGYAFRDYWGQGTLVTVSS
notes: also called WT; source: ExpiCHO, purified (MabSelect SuRe LX)
For B1, in assay [1], the Kd – broadly, the constant that tells how readily two partners part at equilibrium – amounted to 81.5 nM; the koff (usually a measure of how fast the partners let go of each other) was 0.000276 s⁻¹; the kon (usually the second-order rate constant of association) turned out to be 3390 M⁻¹ s⁻¹.

B2: Nanobody-161 IgG1 F30G (VHH)
VHH: EVQLVESGGGLVQPGGSLRLSCAASGSIRGINDMGWYRQAPGKGLELVAAIGRGGGSTNYADSVKGRFTISRDNAKNTLYLQMNSLRAEDTAVYYCHAEISQLGYAFRDYWGQGTLVTVSS
notes: as the VHH of Wm1, with the stated change
In assay [1], B2 displayed a Kd of 3780 nM, a koff of 0.0126 s⁻¹ and a kon of 3340 M⁻¹ s⁻¹.

B3: Nanobody-161 IgG1 R29A (VHH)
VHH: EVQLVESGGGLVQPGGSLRLSCAASGSIAFINDMGWYRQAPGKGLELVAAIGRGGGSTNYADSVKGRFTISRDNAKNTLYLQMNSLRAEDTAVYYCHAEISQLGYAFRDYWGQGTLVTVSS
notes: as for B2
In assay [1], B3 had a Kd of 631 nM, a koff of 0.002 s⁻¹ and a kon of 3170 M⁻¹ s⁻¹.

B4: Nanobody-161 IgG1 R53A (VHH)
VHH: EVQLVESGGGLVQPGGSLRLSCAASGSIRFINDMGWYRQAPGKGLELVAAIGAGGGSTNYADSVKGRFTISRDNAKNTLYLQMNSLRAEDTAVYYCHAEISQLGYAFRDYWGQGTLVTVSS
notes: as for B2
In assay [1], B4 showed an equilibrium dissociation constant (Kd) of 79.5 nM, a koff of 0.000321 s⁻¹ and an association rate constant (kon) of 4030 M⁻¹ s⁻¹.

B5: Nanobody-161 IgG1 L103G (VHH)
VHH: EVQLVESGGGLVQPGGSLRLSCAASGSIRFINDMGWYRQAPGKGLELVAAIGRGGGSTNYADSVKGRFTISRDNAKNTLYLQMNSLRAEDTAVYYCHAEISQGGYAFRDYWGQGTLVTVSS
notes: as for B2
For B5, in assay [1], the Kd worked out at 976 nM, the koff was determined as 0.00382 s⁻¹ and the kon was determined as 3920 M⁻¹ s⁻¹.

B6: Nanobody-161 IgG1 R108A (VHH)
VHH: EVQLVESGGGLVQPGGSLRLSCAASGSIRFINDMGWYRQAPGKGLELVAAIGRGGGSTNYADSVKGRFTISRDNAKNTLYLQMNSLRAEDTAVYYCHAEISQLGYAFADYWGQGTLVTVSS
notes: as for B2
In assay [1], B6 had a Kd of 186 nM, a koff of 0.000877 s⁻¹ and a kon of 4730 M⁻¹ s⁻¹.

B7: Nanobody-161 IgG1 S101A (VHH)
VHH: EVQLVESGGGLVQPGGSLRLSCAASGSIRFINDMGWYRQAPGKGLELVAAIGRGGGSTNYADSVKGRFTISRDNAKNTLYLQMNSLRAEDTAVYYCHAEIAQLGYAFRDYWGQGTLVTVSS
notes: as for B2
In assay [1], B7 had a dissociation constant (Kd) of 1720 nM, a koff of 0.00926 s⁻¹ and a kon of 5370 M⁻¹ s⁻¹.

B8: Nanobody-161 IgG1 Q102A (VHH)
VHH: EVQLVESGGGLVQPGGSLRLSCAASGSIRFINDMGWYRQAPGKGLELVAAIGRGGGSTNYADSVKGRFTISRDNAKNTLYLQMNSLRAEDTAVYYCHAEISALGYAFRDYWGQGTLVTVSS
notes: as for B2
In assay [1], B8 came in with a Kd of 212 nM, an off-rate (koff) of 0.000699 s⁻¹ and an association rate constant (kon) of 3290 M⁻¹ s⁻¹.

B9: TNFR2-His protein (receptor, UniProt P20333 23-461, looked up)
chain: APEPGSTCRLREYYDQTAQMCCSKCSPGQHAKVFCTKTSDTVCDSCEDSTYTQLWNWVPECLSCGSRCSSDQVETQACTREQNRICTCRPGWYCALSKQEGCRLCAPLRKCRPGFGVARPGTETSDVVCKPCAPGTFSNTTSSTDICRPHQICNVVAIPGNASMDAVCTSTSP
notes: TNFR2-His protein used as analyte in BLI; also called histidine-tagged TNFR2
As for B9, the binding result in assay [2], in assay [3], in assay [4], in assay [5], in assay [6] and in assay [7] was “binds” throughout.
